T1: full-length human KIF5B, C-terminal mScarlet-StrepII (human), P33176
T1 chain: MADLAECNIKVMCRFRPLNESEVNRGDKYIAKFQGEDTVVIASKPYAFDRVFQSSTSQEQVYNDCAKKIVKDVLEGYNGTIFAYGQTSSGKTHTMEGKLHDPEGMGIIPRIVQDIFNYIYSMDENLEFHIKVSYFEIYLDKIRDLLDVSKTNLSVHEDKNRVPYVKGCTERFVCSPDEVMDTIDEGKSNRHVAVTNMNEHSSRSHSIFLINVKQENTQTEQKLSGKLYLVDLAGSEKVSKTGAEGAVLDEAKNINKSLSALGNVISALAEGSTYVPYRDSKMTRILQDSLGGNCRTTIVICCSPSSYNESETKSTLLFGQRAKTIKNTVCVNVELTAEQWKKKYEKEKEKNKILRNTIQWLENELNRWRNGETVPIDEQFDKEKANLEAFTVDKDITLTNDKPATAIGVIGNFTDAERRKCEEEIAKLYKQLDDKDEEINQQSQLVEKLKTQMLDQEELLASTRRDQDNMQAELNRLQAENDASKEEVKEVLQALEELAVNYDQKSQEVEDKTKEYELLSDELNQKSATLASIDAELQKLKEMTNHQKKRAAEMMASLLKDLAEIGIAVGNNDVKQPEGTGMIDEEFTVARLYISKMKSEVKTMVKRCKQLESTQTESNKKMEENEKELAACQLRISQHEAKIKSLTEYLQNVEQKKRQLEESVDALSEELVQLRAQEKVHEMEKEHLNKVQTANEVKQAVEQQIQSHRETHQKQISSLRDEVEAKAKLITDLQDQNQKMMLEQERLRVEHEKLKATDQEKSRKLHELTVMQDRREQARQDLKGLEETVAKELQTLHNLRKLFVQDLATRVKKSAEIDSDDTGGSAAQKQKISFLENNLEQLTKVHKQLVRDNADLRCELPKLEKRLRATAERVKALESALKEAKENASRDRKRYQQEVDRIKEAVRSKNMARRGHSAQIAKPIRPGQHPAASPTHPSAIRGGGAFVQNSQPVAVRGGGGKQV

T2: full-length human KIF5A, C-terminal mScarlet-StrepII (human), Q12840
T2 chain: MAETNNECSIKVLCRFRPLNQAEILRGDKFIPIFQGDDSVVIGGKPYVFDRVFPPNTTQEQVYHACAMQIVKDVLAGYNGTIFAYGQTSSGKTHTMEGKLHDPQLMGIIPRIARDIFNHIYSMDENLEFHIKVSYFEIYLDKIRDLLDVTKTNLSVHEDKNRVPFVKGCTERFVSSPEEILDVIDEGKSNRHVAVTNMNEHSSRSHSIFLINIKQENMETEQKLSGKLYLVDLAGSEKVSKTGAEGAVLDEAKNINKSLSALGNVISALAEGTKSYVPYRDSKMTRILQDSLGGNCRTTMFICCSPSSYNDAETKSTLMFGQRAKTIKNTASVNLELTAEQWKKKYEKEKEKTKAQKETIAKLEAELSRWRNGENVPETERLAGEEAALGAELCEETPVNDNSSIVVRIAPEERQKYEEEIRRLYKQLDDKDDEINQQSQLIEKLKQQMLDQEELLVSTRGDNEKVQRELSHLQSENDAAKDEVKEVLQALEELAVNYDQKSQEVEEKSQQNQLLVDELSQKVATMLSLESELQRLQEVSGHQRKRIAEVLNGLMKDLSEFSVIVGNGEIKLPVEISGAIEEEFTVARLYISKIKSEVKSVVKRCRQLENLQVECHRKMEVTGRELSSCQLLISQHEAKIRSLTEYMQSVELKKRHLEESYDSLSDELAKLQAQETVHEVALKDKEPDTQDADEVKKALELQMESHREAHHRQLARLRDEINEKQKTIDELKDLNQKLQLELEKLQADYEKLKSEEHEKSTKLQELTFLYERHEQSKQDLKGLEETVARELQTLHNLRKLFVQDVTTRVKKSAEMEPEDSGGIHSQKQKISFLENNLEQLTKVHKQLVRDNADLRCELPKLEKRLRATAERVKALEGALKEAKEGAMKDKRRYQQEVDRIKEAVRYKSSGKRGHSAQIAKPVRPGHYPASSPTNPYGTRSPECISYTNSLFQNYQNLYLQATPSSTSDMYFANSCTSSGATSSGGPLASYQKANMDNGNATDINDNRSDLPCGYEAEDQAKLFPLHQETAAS


Columns and labels:
[1] = biological target: T1, full-length human KIF5B, C-terminal …; test: SEC-MALS; conditions: remark: other sources report otherwise
[2] = biological target: T2, full-length human KIF5A, C-terminal …; test: SEC-MALS; conditions: remark: other sources report otherwise

Row | stoichiometry N [1] | stoichiometry N [2] | Binder
1 | 2 |  | full-length human KIF5B, C-terminal mScarlet-StrepII, P33176 1-963 (natural protein) MADLAECNIKVMCRFRPLNESEVNRGDKYIAKFQGEDTVVIASKPYAFDRVFQSSTSQEQVYNDCAKKIVKDVLEGYNGTIFAYGQTSSGKTHTMEGKLHDPEGMGIIPRIVQDIFNYIYSMDENLEFHIKVSYFEIYLDKIRDLLDVSKTNLSVHEDKNRVPYVKGCTERFVCSPDEVMDTIDEGKSNRHVAVTNMNEHSSRSHSIFLINVKQENTQTEQKLSGKLYLVDLAGSEKVSKTGAEGAVLDEAKNINKSLSALGNVISALAEGSTYVPYRDSKMTRILQDSLGGNCRTTIVICCSPSSYNESETKSTLLFGQRAKTIKNTVCVNVELTAEQWKKKYEKEKEKNKILRNTIQWLENELNRWRNGETVPIDEQFDKEKANLEAFTVDKDITLTNDKPATAIGVIGNFTDAERRKCEEEIAKLYKQLDDKDEEINQQSQLVEKLKTQMLDQEELLASTRRDQDNMQAELNRLQAENDASKEEVKEVLQALEELAVNYDQKSQEVEDKTKEYELLSDELNQKSATLASIDAELQKLKEMTNHQKKRAAEMMASLLKDLAEIGIAVGNNDVKQPEGTGMIDEEFTVARLYISKMKSEVKTMVKRCKQLESTQTESNKKMEENEKELAACQLRISQHEAKIKSLTEYLQNVEQKKRQLEESVDALSEELVQLRAQEKVHEMEKEHLNKVQTANEVKQAVEQQIQSHRETHQKQISSLRDEVEAKAKLITDLQDQNQKMMLEQERLRVEHEKLKATDQEKSRKLHELTVMQDRREQARQDLKGLEETVAKELQTLHNLRKLFVQDLATRVKKSAEIDSDDTGGSAAQKQKISFLENNLEQLTKVHKQLVRDNADLRCELPKLEKRLRATAERVKALESALKEAKENASRDRKRYQQEVDRIKEAVRSKNMARRGHSAQIAKPIRPGQHPAASPTHPSAIRGGGAFVQNSQPVAVRGGGGKQV
2 |  | 2 | full-length human KIF5A, C-terminal mScarlet-StrepII, Q12840 1-1032 (natural protein) MAETNNECSIKVLCRFRPLNQAEILRGDKFIPIFQGDDSVVIGGKPYVFDRVFPPNTTQEQVYHACAMQIVKDVLAGYNGTIFAYGQTSSGKTHTMEGKLHDPQLMGIIPRIARDIFNHIYSMDENLEFHIKVSYFEIYLDKIRDLLDVTKTNLSVHEDKNRVPFVKGCTERFVSSPEEILDVIDEGKSNRHVAVTNMNEHSSRSHSIFLINIKQENMETEQKLSGKLYLVDLAGSEKVSKTGAEGAVLDEAKNINKSLSALGNVISALAEGTKSYVPYRDSKMTRILQDSLGGNCRTTMFICCSPSSYNDAETKSTLMFGQRAKTIKNTASVNLELTAEQWKKKYEKEKEKTKAQKETIAKLEAELSRWRNGENVPETERLAGEEAALGAELCEETPVNDNSSIVVRIAPEERQKYEEEIRRLYKQLDDKDDEINQQSQLIEKLKQQMLDQEELLVSTRGDNEKVQRELSHLQSENDAAKDEVKEVLQALEELAVNYDQKSQEVEEKSQQNQLLVDELSQKVATMLSLESELQRLQEVSGHQRKRIAEVLNGLMKDLSEFSVIVGNGEIKLPVEISGAIEEEFTVARLYISKIKSEVKSVVKRCRQLENLQVECHRKMEVTGRELSSCQLLISQHEAKIRSLTEYMQSVELKKRHLEESYDSLSDELAKLQAQETVHEVALKDKEPDTQDADEVKKALELQMESHREAHHRQLARLRDEINEKQKTIDELKDLNQKLQLELEKLQADYEKLKSEEHEKSTKLQELTFLYERHEQSKQDLKGLEETVARELQTLHNLRKLFVQDVTTRVKKSAEMEPEDSGGIHSQKQKISFLENNLEQLTKVHKQLVRDNADLRCELPKLEKRLRATAERVKALEGALKEAKEGAMKDKRRYQQEVDRIKEAVRYKSSGKRGHSAQIAKPVRPGHYPASSPTNPYGTRSPECISYTNSLFQNYQNLYLQATPSSTSDMYFANSCTSSGATSSGGPLASYQKANMDNGNATDINDNRSDLPCGYEAEDQAKLFPLHQETAAS

— doi:10.1101/2021.03.12.434960
